Molecular target: T1, CCR6 receptor on human cancer cell lines (PC3, HL60, HT-29, NB4) (human) (UniProt P51684)
T1 sequence (looked up): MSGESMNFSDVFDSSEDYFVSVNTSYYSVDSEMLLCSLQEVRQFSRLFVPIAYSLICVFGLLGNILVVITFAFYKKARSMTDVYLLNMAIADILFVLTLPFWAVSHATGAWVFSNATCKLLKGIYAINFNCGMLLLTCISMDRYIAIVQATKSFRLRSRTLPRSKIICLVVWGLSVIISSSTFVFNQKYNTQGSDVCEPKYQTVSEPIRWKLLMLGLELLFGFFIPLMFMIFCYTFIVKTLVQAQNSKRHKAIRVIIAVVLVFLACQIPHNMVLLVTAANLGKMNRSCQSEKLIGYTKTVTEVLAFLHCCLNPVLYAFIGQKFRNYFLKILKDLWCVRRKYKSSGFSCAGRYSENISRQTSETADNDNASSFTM
Experiment: cell-based or functional assay

- BrdU incorporation of PC3 cells, CCL20 5 and 50 ng/ml: 1.76 fold
- adhesion of HL60 cells to collagen I, CCL20 250 ng/ml: 1.6 fold
- adhesion of HL60 cells to fibronectin, CCL20 500 ng/ml: 2 fold
- adhesion of PC3 cells to collagen I, CCL20 50 ng/ml: 2.2 fold
- adhesion of PC3 cells to collagen I, CCL20 500 ng/ml: 2.09 fold
- adhesion of PC3 cells to fibronectin, CCL20 500 ng/ml: 1.45 fold
Substance: CCL20 (PeproTech EC, London, UK) (from UniProt P78556 27-96) (ligand)

— patent US20110123542A1
